This passage reports amyloid nucleation score results from the supplement of paper PMC12042874.

± gives the uncertainty stated by the source.

The data set can be described thus: amyloid nucleation score (Sup35N fusion, yeast selection) (log enrichment); library NNK1; higher = more nucleation; inactive = no reads after selection. Summed up: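 Nucleation score: DiMSum log enrichment of output over input reads, centred on the mode score of non-aggregating sequences. Only sequences with at least 100 input reads were kept. Reads came from Illumina sequencing of plasmid inserts before and after 7 days of growth at 30°C without adenine and uracil, in psi-negative yeast expressing Sup35N fused to peptides of 20 random codons after 24 hours of induction with 100 μM copper sulfate.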

For the substance SLSFTEVGRNRLSWRSAHSK, the amyloid nucleation score is -0.616 ± 1.7.
As for FLHFVYRI, the figure is -0.578 ± 1.
The figure for TQFEFFWVPKRHSMVHNCMN is -0.337 ± 0.31; for PSSGLFASLIVMSTVRTDLI it is -0.307 ± 0.38.
As for SCLPGPKRFL, the figure is 0.496 ± 1.2.
As to LRYILFKNPSPNNIESL, the amyloid nucleation score is -0.194 ± 0.53.
The figure for PDCRSYLTIF is 0.486 ± 0.31; for CEWVWRGSVCSIWLLVLLPV it is 0.09 ± 0.41; for LANLAVHLLGQGETCIQMFL it is 1.76 ± 0.4.
RFKCDVTTVDW showed an amyloid nucleation score of 0.108 ± 0.24.
For the substance LRYLGMMVRREKIEVINLNY, the amyloid nucleation score came out at 0.329 ± 1.4.
The figure for VFITSVFVRECNTHESTTIQ is 8.073 ± 0.078; for RGFMWLACITCFYAVCYNVS it is 0.005 ± 0.45; for WVIVASP it is -1.42 ± 0.85.
The entry for SLLSFCQSSRVTESSMAYCT is “inactive”.
As for SRLLMKRIYYCVYPKGTTKK, the entry is “inactive”.
Regarding EFWWIDICSGCYLFF, the amyloid nucleation score is 6.5 ± 0.074.
The figure for VKTISCYMWFNVFN is 7.81 ± 0.05.
The substance TCHSKSVCCLYGLCGGPEWG gave an amyloid nucleation score of 6.453 ± 0.055.
With VSKLICVFTGSYRNLEGYRI, the amyloid nucleation score stood at 0.041 ± 0.39.
For GMYRVNSWIMSL, the amyloid nucleation score entry is “inactive”.
The figure for FVGMSRFFKVH is -0.629 ± 0.39; for VFLRL it is 4.48 ± 0.1.
As for LYRWCGPCYLIWGVSWS, the figure is -0.199 ± 0.45; as for YRALLYFNGIMW, “inactive”.
As for NGANMLVCKRFVLVNLYGPA, the figure is 6.02 ± 0.063; as for ISHLDG, -1.04 ± 2.4.
In the case of FSNRWFC, the amyloid nucleation score is -0.578 ± 0.31.
As for VLGLLITGDRLS, the figure is 0.1 ± 1.4.
The figure for RKRPTGTHAVDVSRGFT is 1.27 ± 0.71; for VRQSGLCIKWEVTRRAKRSV it is 0.699 ± 0.85.
The entry for VDLFYE is “inactive”; for ELNDVMRSGSKG it is 0.992 ± 1.
With MITARSLSPRIFRAESAYSE, the amyloid nucleation score came to 0.117 ± 0.36.
As for VTFHLEARLAGLDLMGYSTS, the figure is 0.835 ± 0.53.
The figure for FDSLVSREFVP is -0.887 ± 1.5; for IKLNTEALESYLLVFRMKRW it is -0.605 ± 0.46.
The figure for TDGTLIGSY is 0.128 ± 0.44; for CIIVVSTRAADPDLCSYIML it is 0.234 ± 0.75.
In turn, FFWYPTFISFDRKFEVTIGP yielded an amyloid nucleation score of 5.07 ± 0.053.
The substance FDFYSLRRGGVNYRSLLQVI gave an amyloid nucleation score of 0.25 ± 0.84.
As for KWNLGYIYMYRATIK, the figure is 1.44 ± 0.84; as for RMMSVGALGQG, 0.323 ± 0.76.
The figure for KMFVIVWCDFDAGALGATVN is -0.488 ± 0.58; for AFPRARGYMG it is -0.575 ± 0.37.
The figure for IWDCLFPSSSAMSYPVDPKA is 0.547 ± 0.42; for IGIGWATSLCLDRDLFVTSG it is 0.029 ± 1.2.
RNTVGYVSNTGVLYILTS: the amyloid nucleation score is 6.24 ± 0.067.
As for NNLILPGWM, the figure is -0.612 ± 0.55.
The figure for IMKRCCGESMMPDAGWSGSA is -0.401 ± 1.
As for GRLTLSRGRCCQGSLNTVYP, the figure is 0.007 ± 0.75; as for VFIIRRDLCWRTSFCLQQEL, 0.965 ± 0.18.
GYNMTKAYQCVCFIGDLPGT: the amyloid nucleation score turned out to be 4.61 ± 0.13.
As for YVYGYLNHRTSSGRMFFLFY, the figure is 0.077 ± 0.38.
The figure for LTNRSLIVRDWCTSTYPNPS is 0.08 ± 0.53.
As for GEIGKKNY, the figure is 1.2 ± 0.35; as for ILWLVMWVWTSRFVRCRRHS, -1.94 ± 2.4.
In turn, YLAQIELRLV yielded an amyloid nucleation score of 0.053 ± 0.79.
The entry for EMRNLNLYVLAEPNGVGNSA is “inactive”; for NYCYSFIKYPLEPVKFLSAV it is -0.239 ± 1.1.
As for IIMVYSRSLLMLKLSLVVPC, the entry is “inactive”; as for KGDNVEIMQTFDKSCLDIGA, “inactive”; as for DTGGLYLERARQFKASMFLR, 0.229 ± 0.42.
ATRRSCNLCLNLEFT: the amyloid nucleation score result was “inactive”.
The entry for FSGQAITLVCWIVGQILPFS is “inactive”; for KYKFVRANLILFGMVRG it is -0.115 ± 0.25.
As to CPTEGGLVWSYWSLS, the amyloid nucleation score turned out to be 1.09 ± 0.83.
The figure for CSVFWCFVLGLVNRNLLKRS is -0.928 ± 0.4; for FYIVFFTCLASSS it is 1.94 ± 0.29.
As for GYNWGFVHCSYRSSHFGSGF, the figure is 0.348 ± 0.26; as for GDELKRVWYLGTLSRMRGTE, -0.574 ± 0.62; as for LLAMFKFDNPHILFCSSILL, 5.62 ± 0.078.
The figure for LPSSSPMTRR is -0.837 ± 1.7.
RKCLESTTRSFLAVRS: the amyloid nucleation score turned out to be 3.3 ± 0.097.
For FSMIMSLDVL, the amyloid nucleation score was -0.397 ± 0.4.
As for VSFLASMLRIGMCLPKQVMW, the figure is 0.183 ± 0.8; as for KSRRSCQQLIIVKHVVHARR, 4.08 ± 0.061; as for LSRPTYSRMHIWISCHLIVV, -0.707 ± 1.7.
Turning to SLTDAEGSWLHRSWVKWNRC, the amyloid nucleation score was -0.208 ± 0.62.
Consider TTGSLVCKAAPIWFVPTPAF, for which the amyloid nucleation score is -1.09 ± 0.84.
As for DNAYDRVGTQGSAWFCGDCL, the figure is -0.655 ± 0.64; as for EQAGVRVTDYVAVELLFWRF, 0.826 ± 0.39; as for SLLALLPLQYWVYRIKNLVH, -0.057 ± 1.5.
As for GLMNLVSDRMSWLNEV, the figure is 0.485 ± 0.84; as for AANGCASSV, -0.856 ± 0.44; as for KVIRVYRADCCFTGWHFAVA, -0.224 ± 0.77.
On to LCRVVGYRSPHWQVRGLSVV, for which the amyloid nucleation score was -0.215 ± 1.7.
The figure for KGLCDNVMDLVRLKGGSEAG is 0.443 ± 0.42.
In the case of QNMWIHCWCGRGGMMTREPG, the amyloid nucleation score worked out at 4.73 ± 0.052.
The figure for ESFGRTISVTELSHMT is 0.487 ± 0.39.
The figure for WMYRLYSISLITSDCS is 0.514 ± 0.33; for VSVNRVFFVSWAISKTIS it is -0.689 ± 0.55.
The figure for DLLFAIMMS is -0.631 ± 1.2; for IYTDSVGLFCSYADMPSDRV it is 0.372 ± 1.4; for LSRDHCKNLNLNP it is -0.084 ± 1.1.
IIFGCCVF registered an amyloid nucleation score of 7.982 ± 0.062.
The figure for SMKWSLYLQCRIMYIQTDSR is 3.21 ± 0.12.
As for LKRVQCNSDRAMWCVALVLT, the figure is 0.314 ± 0.59; as for GWQDSLYLYYFTKFCRNQGG, -0.559 ± 0.46.
Take MITWKGLFPAGVGFLRLHA: the amyloid nucleation score was -0.024 ± 0.43.
With CGVNLKNLLTMLPDIGLHAV, the amyloid nucleation score is 0.227 ± 0.25.
As for CDSTVMRGLYCGRVVYSLFV, the figure is 0.721 ± 0.47; as for VDCMGKMVLFLPTFGDGFIV, -0.123 ± 0.32.
